B1: Kinetochore protein NDC80 homolog (Homo sapiens), O14777 (parent)
chain: MKRSSVSSGGAGRLSMQELRSQDVNKQGLYTPQTKEKPTFGKLSINKPTSERKVSLFGKRTSGHGSRNSQLGIFSSSEKIKDPRPLNDKAFIQQCIRQLCEFLTENGYAHNVSMKSLQAPSVKDFLKIFTFLYGFLCPSYELPDTKFEEEVPRIFKDLGYPFALSKSSMYTVGAPHTWPHIVAALVWLIDCIKIHTAMKESSPLFDDGQPWGEETEDGIMHNKLFLDYTIKCYESFMSGADSFDEMNAELQSKLKDLFNVDAFKLESLEAKNRALNEQIARLEQEREKEPNRLESLRKLKASLQGDVQKYQAYMSNLESHSAILDQKLNGLNEEIARVELECETIKQENTRLQNIIDNQKYSVADIERINHERNELQQTINKLTKDLEAEQQKLWNEELKYARGKEAIETQLAEYHKLARKLKLIPKGAENSKGYDFEIKFNPEAGANCLVKYRAQVYVPLKELLNETEEEINKALNKKMGLEDTLEQLNAMITESKRSVRTLKEEVQKLDDLYQQKIKEAEEEDEKCASELESLEKHKHLLESTVNQGLSEAMNELDAVQREYQLVVQTTTEERRKVGNNLQRLLEMVATHVGSVEKHLEEQIAKVDREYEECMSEDLSENIKEIRDKYEKKATLIKSSEE
B2: Proteasome subunit beta type-1 (Homo sapiens), P20618 (parent)
chain: MLSSTAMYSAPGRDLGMEPHRAAGPLQLRFSPYVFNGGTILAIAGEDFAIVASDTRLSEGFSIHTRDSPKCYKLTDKTVIGCSGFHGDCLTLTKIIEARLKMYKHSNNKAMTTGAIAAMLSTILYSRRFFPYYVYNIIGGLDEEGKGAVYSFDPVGSYQRDSFKAGGSASAMLQPLLDNQVGFKNMQNVEHVPLSLDRAMRLVKDVFISAAERDVYTGDALRICIVTKEGIREETVSLRKD
partner: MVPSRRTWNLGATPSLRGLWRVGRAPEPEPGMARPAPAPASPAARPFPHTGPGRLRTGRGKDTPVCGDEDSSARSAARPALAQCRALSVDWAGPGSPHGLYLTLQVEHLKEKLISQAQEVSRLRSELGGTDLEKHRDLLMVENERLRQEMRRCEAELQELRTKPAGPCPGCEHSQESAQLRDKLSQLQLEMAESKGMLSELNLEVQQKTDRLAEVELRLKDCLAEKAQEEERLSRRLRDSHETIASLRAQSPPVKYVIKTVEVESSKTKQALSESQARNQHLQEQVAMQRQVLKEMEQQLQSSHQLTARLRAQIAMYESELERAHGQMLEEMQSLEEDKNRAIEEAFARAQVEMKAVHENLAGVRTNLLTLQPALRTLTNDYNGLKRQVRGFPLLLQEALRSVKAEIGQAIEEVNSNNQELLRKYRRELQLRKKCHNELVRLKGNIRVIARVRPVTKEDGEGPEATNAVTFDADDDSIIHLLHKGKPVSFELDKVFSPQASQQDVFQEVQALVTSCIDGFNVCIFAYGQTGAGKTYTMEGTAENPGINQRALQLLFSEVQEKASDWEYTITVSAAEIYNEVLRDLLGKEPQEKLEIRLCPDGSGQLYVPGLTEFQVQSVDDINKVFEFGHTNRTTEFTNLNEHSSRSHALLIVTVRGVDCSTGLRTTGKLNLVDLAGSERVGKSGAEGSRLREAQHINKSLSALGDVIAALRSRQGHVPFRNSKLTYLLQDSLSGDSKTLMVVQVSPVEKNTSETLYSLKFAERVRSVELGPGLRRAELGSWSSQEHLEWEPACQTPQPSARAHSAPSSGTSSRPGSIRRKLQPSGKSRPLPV
B3: Protein LDOC1 (Homo sapiens), O95751 (parent)
chain: MVDELVLLLHALLMRHRALSIENSQLMEQLRLLVCERASLLRQVRPPSCPVPFPETFNGESSRLPEFIVQTASYMLVNENRFCNDAMKVAFLISLLTGEAEEWVVPYIEMDSPILGDYRAFLDEMKQCFGWDDDEDDDDEEEEDDY
partner: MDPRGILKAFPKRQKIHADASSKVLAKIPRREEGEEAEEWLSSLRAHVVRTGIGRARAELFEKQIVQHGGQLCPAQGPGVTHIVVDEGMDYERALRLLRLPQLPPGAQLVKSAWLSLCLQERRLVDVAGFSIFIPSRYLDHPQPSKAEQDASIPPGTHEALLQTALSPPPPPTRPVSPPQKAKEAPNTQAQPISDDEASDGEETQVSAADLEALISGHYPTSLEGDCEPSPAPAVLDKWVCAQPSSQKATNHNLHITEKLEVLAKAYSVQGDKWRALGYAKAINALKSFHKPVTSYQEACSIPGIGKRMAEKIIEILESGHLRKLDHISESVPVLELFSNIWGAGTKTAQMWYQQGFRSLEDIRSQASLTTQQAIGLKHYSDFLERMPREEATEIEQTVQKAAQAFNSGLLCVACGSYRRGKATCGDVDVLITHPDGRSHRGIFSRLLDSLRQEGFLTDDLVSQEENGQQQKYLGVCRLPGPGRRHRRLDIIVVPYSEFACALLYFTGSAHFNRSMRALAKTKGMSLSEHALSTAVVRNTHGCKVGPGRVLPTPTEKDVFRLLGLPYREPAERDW
B4: Alpha-taxilin (Homo sapiens), P40222 (parent)
chain: MKNQDKKNGAAKQSNPKSSPGQPEAGPEGAQERPSQAAPAVEAEGPGSSQAPRKPEGAQARTAQSGALRDVSEELSRQLEDILSTYCVDNNQGGPGEDGAQGEPAEPEDAEKSRTYVARNGEPEPTPVVNGEKEPSKGDPNTEEIRQSDEVGDRDHRRPQEKKKAKGLGKEITLLMQTLNTLSTPEEKLAALCKKYAELLEEHRNSQKQMKLLQKKQSQLVQEKDHLRGEHSKAVLARSKLESLCRELQRHNRSLKEEGVQRAREEEEKRKEVTSHFQVTLNDIQLQMEQHNERNSKLRQENMELAERLKKLIEQYELREEHIDKVFKHKDLQQQLVDAKLQQAQEMLKEAEERHQREKDFLLKEAVESQRMCELMKQQETHLKQQLALYTEKFEEFQNTLSKSSEVFTTFKQEMEKMTKKIKKLEKETTMYRSRWESSNKALLEMAEEKTVRDKELEGLQVKIQRLEKLCRALQTERNDLNKRVQDLSAGGQGSLTDSGPERRPEGPGAQAPSSPRVTEAPCYPGAPSTEASGQTGPQEPTSARA
B5: "Peptide-N(4)-(N-acetyl-beta-glucosaminyl)asparagine amidase" (Homo sapiens), Q96IV0 (parent)
chain: MAAAALGSSSGSASPAVAELCQNTPETFLEASKLLLTYADNILRNPNDEKYRSIRIGNTAFSTRLLPVRGAVECLFEMGFEEGETHLIFPKKASVEQLQKIRDLIAIERSSRLDGSNKSHKVKSSQQPAASTQLPTTPSSNPSGLNQHTRNRQGQSSDPPSASTVAADSAILEVLQSNIQHVLVYENPALQEKALACIPVQELKRKSQEKLSRARKLDKGINISDEDFLLLELLHWFKEEFFHWVNNVLCSKCGGQTRSRDRSLLPSDDELKWGAKEVEDHYCDACQFSNRFPRYNNPEKLLETRCGRCGEWANCFTLCCRAVGFEARYVWDYTDHVWTEVYSPSQQRWLHCDACEDVCDKPLLYEIGWGKKLSYVIAFSKDEVVDVTWRYSCKHEEVIARRTKVKEALLRDTINGLNKQRQLFLSENRRKELLQRIIVELVEFISPKTPKPGELGGRISGSVAWRVARGEMGLQRKETLFIPCENEKISKQLHLCYNIVKDRYVRVSNNNQTISGWENGVWKMESIFRKVETDWHMVYLARKEGSSFAYISWKFECGSVGLKVDSISIRTSSQTFQTGTVEWKLRSDTAQVELTGDNSLHSYADFSGATEVILEAELSRGDGDVAWQHTQLFRQSLNDHEENCLEIIIKFSDL
B6: Isoform 1 of Nucleoporin p54 (Homo sapiens), Q7Z3B4-1 (parent)
chain: MAFNFGAPSGTSGTAAATAAPAGGFGGFGTTSTTAGSAFSFSAPTNTGTTGLFGGTQNKGFGFGTGFGTTTGTSTGLGTGLGTGLGFGGFNTQQQQQTTLGGLFSQPTQAPTQSNQLINTASALSAPTLLGDERDAILAKWNQLQAFWGTGKGYFNNNIPPVEFTQENPFCRFKAVGYSCMPSNKDEDGLVVLVFNKKETEIRSQQQQLVESLHKVLGGNQTLTVNVEGTKTLPDDQTEVVIYVVERSPNGTSRRVPATTLYAHFEQANIKTQLQQLGVTLSMTRTELSPAQIKQLLQNPPAGVDPIIWEQAKVDNPDSEKLIPVPMVGFKELLRRLKVQDQMTKQHQTRLDIISEDISELQKNQTTSVAKIAQYKRKLMDLSHRTLQVLIKQEIQRKSGYAIQADEEQLRVQLDTIQGELNAPTQFKGRLNELMSQIRMQNHFGAVRSEERYYIDADLLREIKQHLKQQQEGLSHLISIIKDDLEDIKLVEHGLNETIHIRGGVFS
partner: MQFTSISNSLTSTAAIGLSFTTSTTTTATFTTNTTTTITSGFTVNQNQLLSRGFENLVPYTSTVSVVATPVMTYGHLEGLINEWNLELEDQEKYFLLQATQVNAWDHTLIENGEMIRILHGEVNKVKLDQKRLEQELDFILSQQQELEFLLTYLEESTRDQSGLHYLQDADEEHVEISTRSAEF

Variants of: B1
Conditions: with amol2_human AMOTL2, Q9Y2J4
amol2_human AMOTL2, Q9Y2J4, sequence (Q9Y2J4 whole entry): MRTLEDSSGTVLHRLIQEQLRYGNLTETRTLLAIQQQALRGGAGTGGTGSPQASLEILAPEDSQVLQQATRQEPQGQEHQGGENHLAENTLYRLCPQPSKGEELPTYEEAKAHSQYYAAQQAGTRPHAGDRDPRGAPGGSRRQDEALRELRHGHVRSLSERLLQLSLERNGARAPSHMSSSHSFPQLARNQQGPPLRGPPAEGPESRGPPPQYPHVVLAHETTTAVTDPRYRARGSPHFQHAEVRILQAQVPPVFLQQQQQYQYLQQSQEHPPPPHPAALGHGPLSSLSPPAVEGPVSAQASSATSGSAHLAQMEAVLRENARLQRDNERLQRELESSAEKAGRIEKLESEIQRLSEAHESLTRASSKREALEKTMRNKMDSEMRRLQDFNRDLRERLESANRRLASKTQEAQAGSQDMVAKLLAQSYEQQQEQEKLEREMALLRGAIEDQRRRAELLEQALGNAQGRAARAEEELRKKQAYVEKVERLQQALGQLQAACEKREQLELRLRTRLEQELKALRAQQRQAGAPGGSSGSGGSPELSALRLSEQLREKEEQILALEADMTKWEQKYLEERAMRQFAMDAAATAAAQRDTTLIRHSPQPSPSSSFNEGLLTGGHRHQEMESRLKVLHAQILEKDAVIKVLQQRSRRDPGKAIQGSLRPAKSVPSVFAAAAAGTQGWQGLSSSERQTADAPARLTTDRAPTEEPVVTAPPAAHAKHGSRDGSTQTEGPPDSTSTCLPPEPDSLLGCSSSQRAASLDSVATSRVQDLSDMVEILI

Variant | effect of a mutation on the interaction
A605P | with no effect
S55P | with no effect
E348D | with no effect

Variants of: B1
Conditions: with txlna_human TXLNA

Variant | effect of a mutation on the interaction
A605P | with no effect
S55P | with no effect
E348D | with no effect

Variants of: B1
Conditions: with atf4_human ATF4, P18848
atf4_human ATF4, P18848, sequence (P18848 whole entry): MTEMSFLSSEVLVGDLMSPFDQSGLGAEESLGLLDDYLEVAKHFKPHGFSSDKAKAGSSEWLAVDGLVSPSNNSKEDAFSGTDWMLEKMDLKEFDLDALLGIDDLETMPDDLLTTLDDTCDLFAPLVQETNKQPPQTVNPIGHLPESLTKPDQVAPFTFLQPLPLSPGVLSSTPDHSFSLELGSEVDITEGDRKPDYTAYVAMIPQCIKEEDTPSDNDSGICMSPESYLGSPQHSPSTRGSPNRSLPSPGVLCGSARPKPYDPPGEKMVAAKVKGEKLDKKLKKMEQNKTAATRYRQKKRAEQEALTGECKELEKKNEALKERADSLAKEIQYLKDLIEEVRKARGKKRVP

Variant | effect of a mutation on the interaction
A605P | disrupting interaction strength
S55P | with no effect
E348D | with no effect

Variants of: B1
Conditions: with tnip1_human TNIP1, Q15025
tnip1_human TNIP1, Q15025, sequence (Q15025 whole entry): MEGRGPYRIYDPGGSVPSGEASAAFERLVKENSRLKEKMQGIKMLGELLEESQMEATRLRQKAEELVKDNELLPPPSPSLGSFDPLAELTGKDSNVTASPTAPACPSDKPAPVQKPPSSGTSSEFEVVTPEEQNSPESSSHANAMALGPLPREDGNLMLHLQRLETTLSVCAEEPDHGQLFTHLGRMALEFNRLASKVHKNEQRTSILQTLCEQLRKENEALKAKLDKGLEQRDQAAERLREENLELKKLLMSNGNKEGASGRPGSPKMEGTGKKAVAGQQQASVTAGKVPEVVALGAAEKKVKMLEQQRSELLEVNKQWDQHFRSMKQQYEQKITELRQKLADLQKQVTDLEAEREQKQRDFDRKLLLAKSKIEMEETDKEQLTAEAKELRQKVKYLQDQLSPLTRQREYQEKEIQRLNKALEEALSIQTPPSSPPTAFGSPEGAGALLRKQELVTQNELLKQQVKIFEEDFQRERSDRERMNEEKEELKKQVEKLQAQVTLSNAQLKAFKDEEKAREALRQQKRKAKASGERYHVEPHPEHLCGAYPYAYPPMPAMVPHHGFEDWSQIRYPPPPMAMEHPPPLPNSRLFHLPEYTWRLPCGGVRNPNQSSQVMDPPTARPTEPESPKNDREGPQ

Variant | effect of a mutation on the interaction
A605P | disrupting interaction strength
S55P | with no effect
E348D | with no effect

Variants of: B2
Conditions: with kifc3_human KIFC3, Q9BVG8

Variant | effect of a mutation on the interaction
P11A | with no effect

Variants of: B3
Conditions: with dpoll_human POLL

Variant | effect of a mutation on the interaction
L12H | disrupting interaction strength

Variants of: B4
Conditions: with cdr2_human CDR2, Q01850
cdr2_human CDR2, Q01850, sequence (Q01850 whole entry): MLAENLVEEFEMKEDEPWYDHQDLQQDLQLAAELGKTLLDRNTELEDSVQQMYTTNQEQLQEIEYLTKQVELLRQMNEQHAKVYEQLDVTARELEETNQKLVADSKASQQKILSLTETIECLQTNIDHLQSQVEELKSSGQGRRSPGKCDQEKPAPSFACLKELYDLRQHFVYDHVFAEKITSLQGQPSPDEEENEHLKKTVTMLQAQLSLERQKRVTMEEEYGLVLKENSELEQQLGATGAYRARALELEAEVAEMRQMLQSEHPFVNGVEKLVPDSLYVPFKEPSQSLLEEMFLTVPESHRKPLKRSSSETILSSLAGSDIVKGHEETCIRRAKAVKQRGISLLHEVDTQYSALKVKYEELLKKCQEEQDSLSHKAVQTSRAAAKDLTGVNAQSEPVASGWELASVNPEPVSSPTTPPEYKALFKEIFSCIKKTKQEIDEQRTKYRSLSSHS

Variant | effect of a mutation on the interaction
R154G | disrupting interaction strength

Variants of: B4
Conditions: with tfp11_human TFIP11, Q9UBB9

Variant | effect of a mutation on the interaction
R154G | disrupting interaction strength

Variants of: B4
Conditions: with lipa1_human PPFIA1, Q13136
lipa1_human PPFIA1, Q13136, sequence (Q13136 whole entry): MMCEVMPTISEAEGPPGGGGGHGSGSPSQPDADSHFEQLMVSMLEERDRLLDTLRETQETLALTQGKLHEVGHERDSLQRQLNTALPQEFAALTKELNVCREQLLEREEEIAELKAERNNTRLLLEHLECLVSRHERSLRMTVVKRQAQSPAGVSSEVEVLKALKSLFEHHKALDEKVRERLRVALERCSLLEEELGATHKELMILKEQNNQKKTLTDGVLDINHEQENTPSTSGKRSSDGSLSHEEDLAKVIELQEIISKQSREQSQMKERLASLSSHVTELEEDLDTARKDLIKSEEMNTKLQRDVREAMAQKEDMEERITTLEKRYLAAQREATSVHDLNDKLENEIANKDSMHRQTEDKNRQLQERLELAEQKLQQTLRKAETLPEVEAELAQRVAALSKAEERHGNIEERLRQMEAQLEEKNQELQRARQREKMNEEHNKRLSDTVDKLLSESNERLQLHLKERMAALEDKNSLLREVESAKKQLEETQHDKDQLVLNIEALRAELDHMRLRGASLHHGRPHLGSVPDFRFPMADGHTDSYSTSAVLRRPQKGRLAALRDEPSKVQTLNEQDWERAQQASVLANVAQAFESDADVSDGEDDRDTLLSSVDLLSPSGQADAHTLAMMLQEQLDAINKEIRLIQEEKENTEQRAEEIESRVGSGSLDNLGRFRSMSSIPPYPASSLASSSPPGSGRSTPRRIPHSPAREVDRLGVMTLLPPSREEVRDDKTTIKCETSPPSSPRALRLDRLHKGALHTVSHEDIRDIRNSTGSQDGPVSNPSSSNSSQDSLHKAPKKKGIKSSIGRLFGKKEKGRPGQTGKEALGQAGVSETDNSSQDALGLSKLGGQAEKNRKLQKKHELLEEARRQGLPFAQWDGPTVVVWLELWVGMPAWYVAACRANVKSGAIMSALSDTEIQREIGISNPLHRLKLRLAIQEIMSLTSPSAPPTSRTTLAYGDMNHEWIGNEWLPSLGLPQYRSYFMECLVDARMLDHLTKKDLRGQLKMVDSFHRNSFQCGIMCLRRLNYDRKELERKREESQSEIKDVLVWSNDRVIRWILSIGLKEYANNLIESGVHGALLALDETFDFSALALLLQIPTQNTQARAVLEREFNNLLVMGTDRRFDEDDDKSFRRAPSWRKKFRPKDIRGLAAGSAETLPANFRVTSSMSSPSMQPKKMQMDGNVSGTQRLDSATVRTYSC

Variant | effect of a mutation on the interaction
R154G | with no effect

Variants of: B4
Conditions: with ndc80_human NDC80, O14777

Variant | effect of a mutation on the interaction
R154G | disrupting interaction strength

Variants of: B5
Conditions: with ubql1_human UBQLN1, Q9UMX0
ubql1_human UBQLN1, Q9UMX0, sequence (Q9UMX0 whole entry): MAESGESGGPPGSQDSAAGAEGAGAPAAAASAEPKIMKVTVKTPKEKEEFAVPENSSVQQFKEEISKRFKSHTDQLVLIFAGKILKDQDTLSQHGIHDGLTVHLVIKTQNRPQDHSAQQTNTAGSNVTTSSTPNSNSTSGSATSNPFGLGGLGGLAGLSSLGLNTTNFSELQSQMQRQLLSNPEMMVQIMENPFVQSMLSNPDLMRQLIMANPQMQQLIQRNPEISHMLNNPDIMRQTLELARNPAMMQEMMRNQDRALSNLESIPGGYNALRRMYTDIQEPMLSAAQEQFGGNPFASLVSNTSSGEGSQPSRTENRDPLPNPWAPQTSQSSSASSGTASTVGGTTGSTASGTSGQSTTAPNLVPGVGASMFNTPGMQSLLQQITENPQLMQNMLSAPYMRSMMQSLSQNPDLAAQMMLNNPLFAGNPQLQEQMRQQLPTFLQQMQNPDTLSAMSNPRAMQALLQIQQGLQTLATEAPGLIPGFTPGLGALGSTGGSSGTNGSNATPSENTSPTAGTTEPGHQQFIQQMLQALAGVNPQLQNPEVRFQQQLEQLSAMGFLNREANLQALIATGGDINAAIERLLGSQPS

Variant | effect of a mutation on the interaction
V184F | with no effect
F292L | with no effect

Variants of: B5
Conditions: with gucd1_human GUCD1, Q96NT3
gucd1_human GUCD1, Q96NT3, sequence (Q96NT3 whole entry): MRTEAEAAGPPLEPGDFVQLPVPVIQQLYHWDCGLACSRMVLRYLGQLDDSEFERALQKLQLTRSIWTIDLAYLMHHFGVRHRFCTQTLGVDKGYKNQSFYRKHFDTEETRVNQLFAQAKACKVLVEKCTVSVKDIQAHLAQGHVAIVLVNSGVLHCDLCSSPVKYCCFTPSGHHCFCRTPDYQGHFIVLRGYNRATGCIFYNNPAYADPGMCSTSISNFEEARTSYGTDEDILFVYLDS

Variant | effect of a mutation on the interaction
V184F | with no effect

Variants of: B5
Conditions: with trad1_human TRAFD1, O14545
trad1_human TRAFD1, O14545, sequence (O14545 whole entry): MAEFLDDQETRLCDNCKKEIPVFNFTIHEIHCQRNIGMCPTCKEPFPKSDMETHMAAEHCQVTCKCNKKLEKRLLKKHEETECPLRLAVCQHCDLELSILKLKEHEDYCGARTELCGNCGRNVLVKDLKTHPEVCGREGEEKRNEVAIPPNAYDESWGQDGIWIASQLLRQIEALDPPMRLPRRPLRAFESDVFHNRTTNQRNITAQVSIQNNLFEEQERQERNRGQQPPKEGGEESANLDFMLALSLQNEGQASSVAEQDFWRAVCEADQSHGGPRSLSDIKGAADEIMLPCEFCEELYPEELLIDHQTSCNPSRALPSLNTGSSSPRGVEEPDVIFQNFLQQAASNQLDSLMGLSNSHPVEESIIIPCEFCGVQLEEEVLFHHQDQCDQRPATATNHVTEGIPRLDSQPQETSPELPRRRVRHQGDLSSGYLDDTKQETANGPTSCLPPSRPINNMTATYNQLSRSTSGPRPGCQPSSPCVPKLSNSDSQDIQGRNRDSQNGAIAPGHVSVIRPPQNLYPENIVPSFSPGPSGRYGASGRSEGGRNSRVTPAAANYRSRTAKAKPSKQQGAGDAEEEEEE

Variant | effect of a mutation on the interaction
V184F | with no effect
F292L | with no effect

Variants of: B6
Conditions: with NUP62CL

Variant | effect of a mutation on the interaction
T416A | with no effect

Reference: IntAct's records for PubMed 31515488
